The record followed here is publication doi:10.1101/2022.02.11.480038.

For test [1], the target named is GABARAP Y5F H9A mutant (human) (UniProt O95166). Description: ITC.
Test [2] addresses GABARAP K48A mutant (human) (UniProt O95166). Briefly: ITC.

Consider “phosphorylated TEX264 LIR (residues 269-278 with p-S271,p-S272) (peptide)”, for which the Kd in test [1] and in test [2] was 2000 nM in each case.
